In the assay the target is PDF-2180 S ectodomain trimer (PDF-2180 (bat coronavirus, infects Pipisrellus hesperidus) | not stated). Briefly: cryo-EM structure.

Usually stoichiometry N stands for a count of units in the complex or per binding partner. Substance “PDF-2180 S ectodomain trimer (domain or fragment)” displayed a stoichiometry N of 3.

(Values after PMC9734910.)
